Measured values published in patent US11053313B2, “Anti-CLDN-5 antibody, and drug containing said antibody” (OSAKA UNIVERSITY, priority 2017, dated 2021).
Residue numbers refer to the chain shown, from its start.

Assays:
mCLDN-5 [1] = biological target: T1, mCLDN-5 (Mus musculus, UniProt O54942); assay: Evaluation of CLDN specificity by FACS, mCLDN-5-expressing cells; format: binding; conditions: hybridoma culture supernatant as primary antibody, FIG. 1B
T1 construct: expressed in transfected cells; host or cells: retrovirus-infected cells
T1 sequence (O54942 1-218): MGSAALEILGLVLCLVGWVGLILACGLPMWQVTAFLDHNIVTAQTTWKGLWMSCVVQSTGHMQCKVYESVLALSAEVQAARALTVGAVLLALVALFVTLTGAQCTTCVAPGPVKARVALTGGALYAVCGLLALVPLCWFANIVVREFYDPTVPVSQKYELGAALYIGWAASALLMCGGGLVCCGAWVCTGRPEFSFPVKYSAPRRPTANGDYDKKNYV

mCLDN-5 [2] = biological target: T1, mCLDN-5; assay: Cross-species activity FACS, mCLDN-5-expressing cells; format: binding; conditions: antibody concentration 5 μg/mL, FIG. 2
hCLDN-5 [3] = assay: Epitope analysis by hCLDN-5/hCLDN-1 chimeric CLDN (FACS), loop assignment; format: binding, human; conditions: antibody concentration 5 μg/mL, hCLDN-5/hCLDN-1 chimeras
1-1-5 = biological target: T2, 1-1-5 (Homo sapiens, UniProt O00501, A34S/A72N/D37G/E76T/F35Y/G26A/H38D/H61Q/K48E/L36A/M29Q/M62I/Q31R/T33Y/T45A/T46M/T75S/V32I/V56S/V70L/W47Y/Y67F); assay: Epitope analysis FACS, chimeric protein 1-1-5; format: binding; conditions: antibody concentration 5 μg/mL; first extracellular loop substituted with hCLDN-1
T2 construct: expressed in transfected cells; host or cells: retrovirus-infected cells (pCX4pur)
T2 sequence (O00501 1-218 G26A/M29Q/Q31R/V32I/T33Y/A34S/F35Y/L36A/D37G/H38D/T45A/T46M/W47Y/K48E/V56S/H61Q/M62I/Y67F/V70L/A72N/T75S/E76T): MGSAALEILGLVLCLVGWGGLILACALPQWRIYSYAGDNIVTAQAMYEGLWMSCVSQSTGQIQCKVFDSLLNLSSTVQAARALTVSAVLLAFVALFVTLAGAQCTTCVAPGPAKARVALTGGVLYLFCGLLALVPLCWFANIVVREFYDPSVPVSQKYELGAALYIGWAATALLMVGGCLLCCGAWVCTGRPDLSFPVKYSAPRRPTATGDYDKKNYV

5-5-1 = biological target: T3, 5-5-1 (Homo sapiens, UniProt O00501, A162Q/K157R/L160F/Q156A/S151M/S155N/V152T); assay: Epitope analysis FACS, chimeric protein 5-5-1; format: binding; conditions: antibody concentration 5 μg/mL; second extracellular loop substituted with hCLDN-1
T3 construct: expressed in transfected cells; host or cells: retrovirus-infected cells (pCX4pur)
T3 sequence (O00501 1-218 S151M/V152T/S155N/Q156A/K157R/L160F/A162Q): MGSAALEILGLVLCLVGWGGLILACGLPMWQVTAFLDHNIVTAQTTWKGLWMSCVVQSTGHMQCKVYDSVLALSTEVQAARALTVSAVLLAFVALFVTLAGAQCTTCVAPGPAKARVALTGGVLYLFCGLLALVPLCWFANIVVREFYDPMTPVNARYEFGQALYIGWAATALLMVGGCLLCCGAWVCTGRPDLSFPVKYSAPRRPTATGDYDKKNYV

hCLDN-5 [4] = assay: Epitope analysis by hCLDN-5/mCLDN-5 chimeric CLDN (D68E, T75A, S151T, TM; FACS); format: binding, human; conditions: antibody concentration 5 μg/mL, mutants D68E
hCLDN-5 [5] = biological target: T4, hCLDN-5 (Homo sapiens, UniProt O00501); assay: Western blotting operability, HT-1080/hCLDN-5 lysate; format: binding; conditions: SDS-PAGE under reducing condition, antibody concentration 10 μg/mL, FIG. 5
T4 construct: expressed in transfected cells; host or cells: HT-1080 human fibrosarcoma cells infected with a pCX4pur-derived retrovirus (HT-1080/hCLDN-5)
T4 sequence (O00501 1-218): T3 sequence (O00501 1-218 S151M/V152T/S155N/Q156A/K157R/L160F/A162Q) with M151S, T152V, N155S, A156Q, R157K, F160L, Q162A
Description: FIG. 5 illustrates western blotting images showing the CLDN-5 primary structure recognizability of the anti-CLDN-5 antibodies obtained in Example 3-6). The primary antibodies used are shown at the top of the images, and the used cells are shown under the primary antibodies. The names of proteins represented by bands are shown on the left side of the images.
Cell lysates were prepared from HT-1080/mock and HT-1080/hCLDN-5 obtained in Example 1-2), and the lysates were separated by SDS-PAGE under a reducing condition. By using the antibodies (antibody concentration: 10 μg/mL) obtained in Example 1 as primary antibodies, western blotting was performed according to the conventional method. As primary antibodies, commercial monoclonal antibodies (4C3C2, Invitrogen, 35-2500) recognizing the C-terminal of CLDN-5 were used as positive control, and β actin antibodies (Sigma Aldrich, A1978) were used as loading control. The results are illustrated in FIG. 5.

MDCKII/hCLDN-5 = assay: TEER of CLDN-5 compulsory expression system, MDCKII/hCLDN-5; format: cell-based, human; conditions: MDCKII/hCLDN-5, FIG. 7B
[6] = tested on: blood-brain barrier simulation system; assay: Material permeability of blood-brain barrier simulation system (monkey BBB kit); format: cell-based; conditions: 12 hours after addition, FIG. 13
ZO-1 = ZO-1 localization by immunostaining in blood-brain barrier simulation system; format: cell-based; conditions: monkey BBB kit, 12 hours after addition, FIG. 14
CLDN-5 = CLDN-5 localization by immunostaining in blood-brain barrier simulation system; format: cell-based; conditions: monkey BBB kit, 12 hours after addition, FIG. 14

binding capacity to mCLDN-5 (mCLDN-5 [1]): extremely low | binding capacity to mCLDN-5 (mCLDN-5 [2]): extremely low | recognition of 1-1-5 (1-1-5): capable of recognizing | recognition of 5-5-1 (5-5-1): incapable of recognizing | recognition of linear peptide (western blotting operability) (hCLDN-5 [5]): strongly recognized
B1: R9: rat anti-CLDN-5 monoclonal antibody, IgG2b/K; VH SEQ ID NO: 17, VL SEQ ID NO: 18; example of antibody I (antibody, V domains shown)
VH: QVTLKESGPGILQPSHTLSLTCSFSGFSLNTYGVGVNWIRQPSGKGLEWLASIWWHGKTYINPSLKNRLTVSKDPSNNQAFLEVTNVDPADTATYYCAHARAQLLDYWGQGVMVTVSS
VL: DIVMTQTPSSQAVSAGEKVTMSCKSSQSLLYSGDQKNYLAWYQQKPGQSPKLLIYLTSTRESGVPDRFIGSGSGTDFTLTISSVQAEDLADYYCQQHYSYPLTFGSGTKLEI
modifications: R9 VH; R9 VL
extracellular loop of CLDN-5 recognized (hCLDN-5 [3]): second extracellular loop | portion of hCLDN-5 recognized (hCLDN-5 [4]): domain around the 151st amino acid from the N-terminal present in the second extracellular loop | reduction in TEER (MDCKII/hCLDN-5): greatly reducing TEER | 4 kDa FITC-dextran permeability of the blood-brain barrier simulation system [6]: exhibited an activity of improving | localization properties of ZO-1 (ZO-1): did not change | localization properties of CLDN-5 in the intercellular space (CLDN-5): reduced
